Source: PMC11898703

Molecular target: FliW-T25 (Clostridioides difficile) (UniProt Q18CX4)
Experiment: two-hybrid; bacterial two-hybrid (BACTH) in E. coli BTH101 read by β-galactosidase assay on cell lysates (10^10 CFU, bead beating in Z buffer, ONPG, ΔOD420 over 1 h)

Q: Which fold increase in β-galactosidase activity over the TcdR-T18 + T25 control does the source give for TcdR-T18 (natural protein) here?
A: The fold increase in β-galactosidase activity over the TcdR-T18 + T25 control was 2 fold.
